Measured values from publication PMC9744743, “Introducing or removing heparan sulfate binding sites does not alter brain uptake of the blood–brain barrier shuttle scFv8D3” (Scientific Reports, 2022).

Target: T1, recombinant mouse TfR extracellular domain protein (Mus musculus, UniProt Q62351)
T1 construct: transferrin receptor (TfR), mouse, extracellular domain; also called transferrin receptor; source: recombinant, prepared in our lab
Assay: ELISA; indirect ELISA; half-area plates coated with 50 ng/well recombinant mouse TfR extracellular domain in PBS overnight at 4 °C, blocked with 1% BSA; serial dilutions of scFvs 2 h at RT in PBS with 0.1% BSA and 0.05% Tween-20; detected by mouse anti-Strep-Tag II and HRP goat anti-mouse
Conditions: both partners purified

T1 sequence (Q62351 89-763): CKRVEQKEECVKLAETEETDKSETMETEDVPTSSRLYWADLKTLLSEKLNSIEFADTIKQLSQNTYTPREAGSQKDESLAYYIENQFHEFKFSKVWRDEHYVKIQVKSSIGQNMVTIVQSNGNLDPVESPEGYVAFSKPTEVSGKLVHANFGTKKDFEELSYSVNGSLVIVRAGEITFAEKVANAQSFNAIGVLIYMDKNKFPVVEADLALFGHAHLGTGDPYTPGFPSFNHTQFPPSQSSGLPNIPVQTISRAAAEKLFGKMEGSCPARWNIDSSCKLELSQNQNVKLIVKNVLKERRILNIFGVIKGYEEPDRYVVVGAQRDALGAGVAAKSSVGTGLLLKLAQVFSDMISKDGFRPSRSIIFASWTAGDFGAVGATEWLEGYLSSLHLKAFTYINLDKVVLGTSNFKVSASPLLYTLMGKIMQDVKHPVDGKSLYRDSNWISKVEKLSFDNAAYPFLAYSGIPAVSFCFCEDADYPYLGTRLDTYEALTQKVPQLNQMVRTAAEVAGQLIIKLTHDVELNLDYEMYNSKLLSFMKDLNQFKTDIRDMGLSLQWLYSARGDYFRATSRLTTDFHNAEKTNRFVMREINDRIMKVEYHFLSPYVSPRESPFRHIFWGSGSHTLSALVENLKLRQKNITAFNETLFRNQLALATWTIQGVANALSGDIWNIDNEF

Binder | binding result
HS(−)scFv8D3 mutant (K42Q_K43Q and K243Q_R244Q) (scFv, V domains shown, as the heavy chain variable domain of m1 with the stated changes; numbers count on: the whole scFv8D3 chain; linker, printed as SGSTS (G4S)3; as the light chain variable domain of m1 with the stated changes; Same tag, linkers and signal peptide as m1; also called HS minus mutant; source: Expi293 cells, transfected, purified from supernatant (Strep-Tactin XT)) VH: EVQLVESGGGLVQPGNSLTLSCVASGFTFSNYGMHWIRQAPQQGLEWIAMIYYDSSKMNYADTVKGRFTISRDNSKNTLYLEMNSLRSEDTAMYYCAVPTSHYVVDVWGQGVSVTVSS VL: DIQMTQSPASLSASLEEIVTITCQASQDIGNWLAWYQQKPGKSPQLLIYGATSLADGVPSRFSGSRSGTQFSLKISRVQVEDIGIYYCLQAYNTPWTFGGGTKLELQ | binds
HS(+)scFv8D3 mutant (S75K and P176K) (scFv, V domains shown, as the heavy chain variable domain of m1 with the stated change; numbers count on: the whole scFv8D3 chain; linker, printed as SGSTS (G4S)3; as the light chain variable domain of m1 with the stated change; Same tag, linkers and signal peptide as m1; That S75 lies in the first domain and P176 in the second is worked out from the residue numbers; also called HS plus mutant; source: Expi293 cells, …) VH: EVQLVESGGGLVQPGNSLTLSCVASGFTFSNYGMHWIRQAPKKGLEWIAMIYYDSSKMNYADTVKGRFTISRDNKKNTLYLEMNSLRSEDTAMYYCAVPTSHYVVDVWGQGVSVTVSS VL: DIQMTQSPASLSASLEEIVTITCQASQDIGNWLAWYQQKKGKSPQLLIYGATSLADGVPSRFSGSRSGTQFSLKISRVQVEDIGIYYCLQAYNTPWTFGGGTKLELK | binds
